Measured values from US6060451, “Thrombin inhibitors based on the amino acid sequence of hirudin” (The National Research Council of Canada, dated 2000).
Non-standard residues stand in square brackets, D forms with d.

Biological target: human α-thrombin (human, UniProt P00734)
Assay: inhibition of thrombin-mediated hydrolysis of Tosyl-Gly-Pro-Arg-AMC (fluorogenic amidolytic assay)

Row | Binder | Ki
1 | Ac-[dF]PR[(CH2)4CO][NH‑CH2‑CH:CH‑CH2‑CO]DFEPIPL-OH [P183 (SEQ ID NO:5)] | 300 nM
2 | Ac-[dF]PR[(CH2)4CO][NH‑CH2‑CH:CH‑CH2‑CO][NH‑CH2‑CH:CH‑CH2‑CO]DFEPIPL-OH [P184 (SEQ ID NO:6) (BCH-1710)] | 3.5 nM
3 | Ac-[dF]PR[(CH2)4CO][NH‑CH2‑CH:CH‑CH2‑CO][NH‑CH2‑CH:CH‑CH2‑CO][NH‑CH2‑CH:CH‑CH2‑CO]DFEPIPL-OH [P185 (SEQ ID NO:7)] | 3.2 nM
